Results on three molecules are retold here after patent US20220119534A1 (DRAGONFLY THERAPEUTICS, published 2022).

The target of experiment [1] is T1, Human CD16a V158 (FcγRIIIa V158) (human, UniProt P08637 17-208, biotinylated (site not stated)).
T1 construct: V158 is the allele name in mature numbering; also called hCD16aV; hCD16a V158
Put plainly: SPR; biotinylated CD16a V158 captured on SA chip, TriNKET as analyte; 1:1 kinetic fit; after 4 wks 40 C in phosphate/citrate/NaCl pH 7.8.

Experiment [2] deals with T2, Human CLEC12A-His (human, UniProt Q5QGZ9 65-265).
T2 construct: Recombinant soluble protein made in house; also called hCLEC12A-His; hCLEC12A; not shown: His tag
T2 sequence: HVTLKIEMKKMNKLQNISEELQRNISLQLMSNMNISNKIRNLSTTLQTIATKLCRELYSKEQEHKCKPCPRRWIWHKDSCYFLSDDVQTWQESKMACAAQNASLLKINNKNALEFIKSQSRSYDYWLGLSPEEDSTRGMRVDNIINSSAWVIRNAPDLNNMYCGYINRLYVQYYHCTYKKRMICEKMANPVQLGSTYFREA
As to the kind of experiment: SPR, untreated CLEC12A; average of 3 replicates. For orientation: In SPR one partner is held on a chip, and binding of the other changes the refractive index at the surface.

The target of experiment [3] is T2, Human CLEC12A-His. As to the kind of experiment: SPR, 37 C, AB0192 captured, hCLEC12A-His analyte.
The target in another experiment is T3, recombinant human FcRn (human, UniProt P55899 24-297; P61769 21-119).
T3 construct: also called hFcRn
Put plainly: SPR 25C, pH 6.0, steady state; pH 6.0; third replicate.

Experiment [4] concerns the target T4, human CLEC12A expressed on cells (human, UniProt Q5QGZ9 1-265).
T4 construct: Transduced isogenic cells or endogenous expression on AML cells; also called RMA-hCLEC12A; Ba/F3-hCLEC12A
T4 sequence: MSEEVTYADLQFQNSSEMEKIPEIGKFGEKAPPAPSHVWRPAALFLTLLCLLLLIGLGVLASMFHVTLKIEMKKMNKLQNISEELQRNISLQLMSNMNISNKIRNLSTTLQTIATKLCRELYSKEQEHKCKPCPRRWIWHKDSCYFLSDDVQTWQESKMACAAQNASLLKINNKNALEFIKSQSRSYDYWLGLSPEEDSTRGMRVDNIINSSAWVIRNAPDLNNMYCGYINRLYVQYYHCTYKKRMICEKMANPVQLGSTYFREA
As to the kind of experiment: flow cytometry, hCLEC12A+ Ba/F3. For orientation: In flow cytometry, cells or beads pass a laser one at a time.

Experiment [5] deals with T4, human CLEC12A expressed on cells. As to the kind of experiment: flow cytometry, HL60.

Values joined by “and” are separate entries in the source; they are usually repeats but may differ in a detail not shown here. Equal values may be shown once.

T1 sequence (P08637 17-208 F176V limits assumed): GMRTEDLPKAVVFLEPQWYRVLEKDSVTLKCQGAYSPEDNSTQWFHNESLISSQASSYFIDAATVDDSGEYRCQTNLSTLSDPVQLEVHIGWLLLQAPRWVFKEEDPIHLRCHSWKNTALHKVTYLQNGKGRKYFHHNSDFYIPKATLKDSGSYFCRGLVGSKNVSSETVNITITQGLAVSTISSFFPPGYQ
T3 sequence (P55899 24-297 limits assumed, chain 1 of 2): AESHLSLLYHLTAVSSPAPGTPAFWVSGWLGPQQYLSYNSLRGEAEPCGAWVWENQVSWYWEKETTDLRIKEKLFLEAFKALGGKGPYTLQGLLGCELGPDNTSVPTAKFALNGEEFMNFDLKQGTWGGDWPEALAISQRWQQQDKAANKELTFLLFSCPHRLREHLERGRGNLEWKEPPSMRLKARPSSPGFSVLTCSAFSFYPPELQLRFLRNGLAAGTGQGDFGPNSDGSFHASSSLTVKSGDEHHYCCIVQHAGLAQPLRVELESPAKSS
T3 sequence (P61769 21-119 limits assumed, chain 2 of 2): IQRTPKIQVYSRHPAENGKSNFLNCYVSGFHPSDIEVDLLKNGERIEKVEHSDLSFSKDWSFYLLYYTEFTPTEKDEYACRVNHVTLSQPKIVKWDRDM

B1: F3'-1602 TriNKET (bispecific antibody, human IgG1, kappa)
chain: QLQLQESGPGLVKPSETLSLTCTVSGFSLTNYGLHWIRQPPGKCLEWIGVIWSGGKTDYNPSLKSRVTISKDTSKNQFSLKLSSVQAADTAVYYCAKYDYDDSLDYWGQGTLVTVSSGGGGSGGGGSGGGGSGGGGSDIQMTQSPSSLSASVGDRVTITCHASQNINFWLSWYQQKPGKAPKLLIYEASNLHTGVPSRFSGSGSGTRFTLTISSLQPEDIATYYCQQSHSYPLTFGCGTKLEIKGSDKTHTCPPCPAPELLGGPSVFLFPPKPKDTLMISRTPEVTCVVVDVSHEDPEVKFNWYVDGVEVHNAKTKPREEQYNSTYRVVSVLTVLHQDWLNGKEYKCKVSNKALPAPIEKTISKAKGQPREPRVYTLPPCRDELTKNQVSLTCLVKGFYPSDIAVEWESNGQPENNYKTTPPVLVSDGSFTLYSKLTVDKSRWQQGNVFSCSVMHEALHNHYTQKSLSLSPG
heavy: EVQLVESGGGLVKPGGSLRLSCAASGFTFSSYSMNWVRQAPGKGLEWVSSISSSSSYIYYADSVKGRFTISRDNAKNSLYLQMNSLRAEDTAVYYCARGAPIGAAAGWFDPWGQGTLVTVSSASTKGPSVFPLAPSSKSTSGGTAALGCLVKDYFPEPVTVSWNSGALTSGVHTFPAVLQSSGLYSLSSVVTVPSSSLGTQTYICNVNHKPSNTKVDKKVEPKSCDKTHTCPPCPAPELLGGPSVFLFPPKPKDTLMISRTPEVTCVVVDVSHEDPEVKFNWYVDGVEVHNAKTKPREEQYNSTYRVVSVLTVLHQDWLNGKEYKCKVSNKALPAPIEKTISKAKGQPREPQVCTLPPSRDELTENQVSLTCLVKGFYPSDIAVEWESNGQPENNYKTTPPVLDSDGSFFLYSWLTVDKSRWQQGNVFSCSVMHEALHNHYTQKSLSLSPG
light: DIQMTQSPSSVSASVGDRVTITCRASQGISSWLAWYQQKPGKAPKLLIYAASSLQSGVPSRFSGSGSGTDFTLTISSLQPEDFATYYCQQGVSFPRTFGGGTKVEIKRTVAAPSVFIFPPSDEQLKSGTASVVCLLNNFYPREAKVQWKVDNALQSGNSQESVTEQDSKDSTYSLSSTLTLSKADYEKHKVYACEVTHQGLSSPVTKSFNRGEC
notes: Trispecific F3' format: CLEC12A scFv-Fc paired with NKG2D Fab-Fc; Stressed and control samples of the stability studies are the same molecule; also called AB0237
As to B1, in experiment [1], the Kd (commonly the equilibrium constant for the complex coming apart) came out at 216 nM; the off-rate constant (koff) (as a rule, the rate constant with which the complex falls apart) is 0.0209 s⁻¹; the on-rate constant (kon) (as a rule, the second-order rate constant of association) amounted to 96700 M⁻¹ s⁻¹.

B2: AB0192 TriNKET (other)
chain: EVQLVESGGGVVQPGGSLRLSCAASGFTFNAFGMHWVRQAPGKCLEWVAFISSGSTSIYYANTVKGRFTISRDNSKNTLYLQMNSLRAEDTAVYYCARDGYPTGGAMDYWGQGTSVTVSSGGGGSGGGGSGGGGSGGGGSDIQMTQSPSSLSASVGDRVTITCKASQDIYNYLSWFQQKPGKAPKPLIYRANILVSGVPSRFSGSGSGQDYTFTISSLQPEDIATYYCLQFDAFPFTFGCGTKLEIKGSDKTHTCPPCPAPELLGGPSVFLFPPKPKDTLMISRTPEVTCVVVDVSHEDPEVKFNWYVDGVEVHNAKTKPREEQYNSTYRVVSVLTVLHQDWLNGKEYKCKVSNKALPAPIEKTISKAKGQPREPRVYTLPPCRDELTKNQVSLTCLVKGFYPSDIAVEWESNGQPENNYKTTPPVLVSDGSFTLYSKLTVDKSRWQQGNVFSCSVMHEALHNHYTQKSLSLSPG
heavy: EVQLVESGGGLVKPGGSLRLSCAASGFTFSSYSMNWVRQAPGKGLEWVSSISSSSSYIYYADSVKGRFTISRDNAKNSLYLQMNSLRAEDTAVYYCARGAPIGAAAGWFDPWGQGTLVTVSSASTKGPSVFPLAPSSKSTSGGTAALGCLVKDYFPEPVTVSWNSGALTSGVHTFPAVLQSSGLYSLSSVVTVPSSSLGTQTYICNVNHKPSNTKVDKKVEPKSCDKTHTCPPCPAPELLGGPSVFLFPPKPKDTLMISRTPEVTCVVVDVSHEDPEVKFNWYVDGVEVHNAKTKPREEQYNSTYRVVSVLTVLHQDWLNGKEYKCKVSNKALPAPIEKTISKAKGQPREPQVCTLPPSRDELTENQVSLTCLVKGFYPSDIAVEWESNGQPENNYKTTPPVLDSDGSFFLYSWLTVDKSRWQQGNVFSCSVMHEALHNHYTQKSLSLSPG
light: DIQMTQSPSSVSASVGDRVTITCRASQGISSWLAWYQQKPGKAPKLLIYAASSLQSGVPSRFSGSGSGTDFTLTISSLQPEDFATYYCQQGVSFPRTFGGGTKVEIKRTVAAPSVFIFPPSDEQLKSGTASVVCLLNNFYPREAKVQWKVDNALQSGNSQESVTEQDSKDSTYSLSSTLTLSKADYEKHKVYACEVTHQGLSSPVTKSFNRGEC
notes: the condition stands under assay; also called AB0192 Lot AB0192-005
In the experiment with Human CLEC12A-His [2], B2 had a Kd of 1.65 nM, a koff of 0.00115 s⁻¹ and a kon of 698000 M⁻¹ s⁻¹. Further, in the experiment with Human CLEC12A-His [3], the Kd was 1.72 nM and 1.99 nM and 1.71 nM; the koff was 0.00136 s⁻¹ and 0.00151 s⁻¹ and 0.00134 s⁻¹; the association rate constant (kon) was 787000 M⁻¹ s⁻¹ and 757000 M⁻¹ s⁻¹ and 785000 M⁻¹ s⁻¹.

B3: F3'-1602 TriNKET (other)
chain: QLQLQESGPGLVKPSETLSLTCTVSGFSLTNYGLHWIRQPPGKCLEWIGVIWSGGKTDYNPSLKSRVTISKDTSKNQFSLKLSSVQAADTAVYYCAKYDYDDSLDYWGQGTLVTVSSGGGGSGGGGSGGGGSGGGGSDIQMTQSPSSLSASVGDRVTITCHASQNINFWLSWYQQKPGKAPKLLIYEASNLHTGVPSRFSGSGSGTRFTLTISSLQPEDIATYYCQQSHSYPLTFGCGTKLEIKGSDKTHTCPPCPAPELLGGPSVFLFPPKPKDTLMISRTPEVTCVVVDVSHEDPEVKFNWYVDGVEVHNAKTKPREEQYNSTYRVVSVLTVLHQDWLNGKEYKCKVSNKALPAPIEKTISKAKGQPREPRVYTLPPCRDELTKNQVSLTCLVKGFYPSDIAVEWESNGQPENNYKTTPPVLVSDGSFTLYSKLTVDKSRWQQGNVFSCSVMHEALHNHYTQKSLSLSPG
heavy: EVQLVESGGGLVKPGGSLRLSCAASGFTFSSYSMNWVRQAPGKGLEWVSSISSSSSYIYYADSVKGRFTISRDNAKNSLYLQMNSLRAEDTAVYYCARGAPIGAAAGWFDPWGQGTLVTVSSASTKGPSVFPLAPSSKSTSGGTAALGCLVKDYFPEPVTVSWNSGALTSGVHTFPAVLQSSGLYSLSSVVTVPSSSLGTQTYICNVNHKPSNTKVDKKVEPKSCDKTHTCPPCPAPELLGGPSVFLFPPKPKDTLMISRTPEVTCVVVDVSHEDPEVKFNWYVDGVEVHNAKTKPREEQYNSTYRVVSVLTVLHQDWLNGKEYKCKVSNKALPAPIEKTISKAKGQPREPQVCTLPPSRDELTENQVSLTCLVKGFYPSDIAVEWESNGQPENNYKTTPPVLDSDGSFFLYSWLTVDKSRWQQGNVFSCSVMHEALHNHYTQKSLSLSPG
light: DIQMTQSPSSVSASVGDRVTITCRASQGISSWLAWYQQKPGKAPKLLIYAASSLQSGVPSRFSGSGSGTDFTLTISSLQPEDFATYYCQQGVSFPRTFGGGTKVEIKRTVAAPSVFIFPPSDEQLKSGTASVVCLLNNFYPREAKVQWKVDNALQSGNSQESVTEQDSKDSTYSLSSTLTLSKADYEKHKVYACEVTHQGLSSPVTKSFNRGEC
notes: CLEC12A scFv-Fc, NKG2D A49MI Fab-Fc, human IgG1 Fc; also called AB0237
On to B3, for which the dissociation constant (Kd) with recombinant human FcRn was 1500 nM. In experiment [4], it took 14.4 nM to reach a half-maximal effect (EC50) and the “Max MFI” value was 50200 MFI. Further, in experiment [5], a half-maximal response (EC50) required 1.6 nM and the “Max binding MFI” value amounted to 924 MFI.
